# Results taken from patent publication US20240377400A1, “METHODS FOR TREATING A SUBTYPE OF COLORECTAL CANCER” (Cornell University, priority 2021, published 2024).
# B1: PEGPH20: a PEGylated version of human recombinant PH20 hyaluronidase; clinical-grade pegylated hyaluronidase (Halozyme Therapeutics) (protein, UniProt P38567 36-490, looked up)
# Hyaluronidase PH-20: LNFRAPPVIPNVPFLWAWNAPSEFCLGKFDEPLDMSLFSFIGSPRINATGQGVTIFYVDRLGYYPYIDSITGVTVNGGIPQKISLQDHLDKAKKDITFYMPVDNLGMAVIDWEEWRPTWARNWKPKDVYKNRSIELVQQQNVQLSLTEATEKAKQEFEKAGKDFLVETIKLGKLLRPNHLWGYYLFPDCYNHHYKKPGYNGSCFNVEIKRNDDLSWLWNESTALYPSIYLNTQQSPVAATLYVRNRVREAIRVSKIPDAKSPLPVFAYTRIVFTDQVLKFLSQDELVYTFGETVALGASGIVIWGTLSIMRSMKSCLLLDNYMETILNPYIINVTLAAKMCSQVLCQEQGVCIRKNWNSSDYLHLNPDNFAIQLEKGGKFTVRGKPTLEDLEQFSEKFYCSCYSTLSCKEKADVKDTDAVDVCIADGVCIDAFLKPPMETEEPQIFYNASPSTLS
# modifications: PEGylated
# Tests used:
# [1] = tested on: MTO-sgPrkci/sgPrkcz liver metastases; test: Liver metastasis model, intrasplenic injection of sgPrkci/Prkcz MTOs; type: in vivo, mouse; conditions: 5 doses over 2.5 weeks
# Text: CRC predominantly metastasizes to the liver, which is the leading cause of death. Five-year overall survival for metastatic CRC patients is only 14.7%. Furthermore, patients with metastatic liver disease do worse than those without liver disease across different types of cancer and are totally refractory to ICB. Based on data that PEGPH20 remodels the tumor microenvironment and enables ICB in primary MSS CRC, the potential role of targeting HA in liver metastasis was investigated. To directly test therapeutic effects on liver metastatic disease, MTO-sgPrkci/sgPrkcz was inoculated in the portal circulation of wild-type C57BL/6J mice and mice were for two weeks and a half (5 doses) with a low clinically relevant dose of PEGPH20 ([…]) or in combination with anti-PDL1 or/and anti-CTLA4 (FIG. 22A).
# Intrasplenic injection of sgPrkci/Prkcz MTOs in WT mice. Mice were treated twice a week with Veh or PEGPH20 0.0375 mg/kg and/or αPD-L1 (5 mg/kg) and/or aCTLA4 (100 ug/dose) for 2.5 weeks (n: sgPrkci/Prkcz MTOs Veh-treated=7, sgPrkciiPrkcz MTOs PEGPH20-treated=7, sgPrkci/Prkcz MTOs PEGPH20 and αPD-L1-treated=7, and sgPrkci/Prkcz MTOs PEGPH20 and aCTLA4-treated=6).
# [2] = tested on: tumors from Prkci^fl/fl Prkcz^fl/fl Villin-cre (DKO) mice; test: scRNAseq and IHC of DKO mouse intestinal tumors treated with PVHA or Galunisertib; type: in vivo; conditions: non-tumor area
# pancreatic cancer = pancreatic cancer patients; cited from earlier work
# [3] = tested on: Prkci^f/fPrkcz^f/f; Villin-Cre tumors; test: Endogenous Prkci^f/fPrkcz^f/f; Villin-Cre tumors treated with PEGPH20: histology, tumor burden, Quant-seq; type: in vivo, mouse
# Procedure: FIGS. 9E-9O illustrate Prkci^f/fPrkcz^f/f; Villin-Cre mice (mOle and female, 11-week-old) treated with Veh (n=10) or PEGPH20 (n=12), 0.0375 mg/kg for 3 weeks. Experimental design (E); IHC HA, Masson's trichrome, and αSMA(F); staining quantification (n=5) (G); macroscopic images of tumors (H); total tumor number, tumor size, and tumor load (I); quantification of cancer incidence (J); and sessile serrated lesions (SSL) and carcinoma quantification of tumors (K). Scale bars, 50 μm (F), 10 mm (H). The red arrow denotes tumors>5 mm (H). (L-N) GSEA of transcriptomic data from Quant-seq on PEGPH20-treated tumors versus Veh (n=3) using compilation H (MSigDB) (L), stroma-related signatures (M) and serrated-related signatures (N). (O) GSEA plots of the indicated gene signatures for PEGPH20-treated tumors versus Veh (n=3). Results are shown as mean±SEM *p<0.05, **p<0.01, ***p<0.001, ****p<0.0001. See also FIG. 16.
# Animal handling and experimental procedures conformed to institutional guidelines and were approved by the Sanford-Burnham-Prebys Medical Discovery Institute Institutional Animal Care and Use Committee, and by the Weill Cornell Medicine Institutional Animal Care and Use Committee. Prkci^f/fPrkcz^f/f, Villin-Cre, Prkci^f/fPrkcz^f/f; Villin-Cre and Villin-CreERT2 mice were previously described (el Marjou et al., 2004; Madison et al., 2002; Nakanishi et al., 2018) Prkci^f/fPrkcz^f/f; Villin-CreERT2 mice were generated by breeding Prkci^f/fPrkcz^f/f mice with Villin-CreERT2 (Jackson Laboratory, stock number 020282) mice. All mouse strains were generated in a C57BL/6 background and were born and maintained under pathogen-free conditions. For PEGPH20 treatment, 11-week-old Prkci^f/fPrkcz^f/f; Villin-Cre were retro-orbitally injected twice a week for 3 weeks with a dose of 0.0375 mg/kg of PEGPH20 (Halozyme Therapeutics), until they were sacrificed. Control mice were treated with vehicle. For xenograft experiments, 6-7 week-old male C57BL/6 were purchased from Charles River Labs (Wilmington, MA, USA). All mice were maintained on food and water ad libitum and were age-matched and co-housed for all experiments. Mice were sacrificed and small intestine, colon, tumors or other organs were collected for analysis. All genotyping was done by PCR. Age- and sex-matched mice were used for all experiments
# Tissues from indicated mice were isolated, rinsed in ice-cold PBS, fixed in 10% neutral buffered formalin overnight at 4° C., dehydrated, and embedded in paraffin. Sections (5 μm) were stained with hematoxylin and eosin (H&E). For immunohistochemistry, sections were deparaffinized, rehydrated, and then treated for antigen retrieval. After blocking in Protein Block Serum-Free solutions (DAKO), tissues were incubated with primary antibody overnight at 4° C. followed by incubation with biotinylated secondary antibody. Endogenous peroxidase was quenched in 3% H2O2 in water for 10 minutes at room temperature. Antibodies were visualized with avidin-biotin complex (Vectastain Elite; Vector Laboratories) using diaminobenzidine as the chromogen. Stained sections were analyzed with a Zeiss light microscope supplemented with Zen 3.3 Bule edition software. For immunofluorescence, the signal was visualized using the OPAL™ 4-Color Manual IHC Kit (Akoya Biosciences, MA), which allows simultaneous detection of multiple targets in the same image. Fluorophores Opal 520, Opal 570, and TSA Plus Cyanine 5 were used, and the sections were counterstained with Spectral DAPI.
# Total RNA was extracted using Quick-RNA MiniPrep kit (Zymo Research). Libraries were prepared from 200 ng of total RNA using the QuantSeq 3′ mRNA-Seq Library Prep Kit FWD for Illumina from Lexogen, and optional UMIs (Vienna, Austria). Barcoded libraries were pooled, and single end sequenced (1×75) on the Illumina NextSeq 500 using the High output V2.5 kit (Illumina Inc., San Diego CA).
# For 3′RNA-Seq, read data was processed with the BlueBee Genomics Platform (BlueBee, San Mateo, CA). […]
# [4] = small intestine, PEGPH20 0.0375 mg/kg, 3 weeks
molecule,measurement,setting,value
B1,number of established liver tumors and volume of those tumors,[1],reducing
same,metastatic burden of MTO-sgPrkci/sgPrkcz,"[1]; PEGPH20 0.0375 mg/kg, αPD-L1 5 mg/kg, aCTLA4 100 ug/dose",markedly decreased
same,Olfm4 (Stem cell marker) IHC,[2],increase
same,duration of response or progression-free or overall survival,pancreatic cancer,no improvement
same,response rate in the experimental arm,pancreatic cancer,higher
same,"signatures related to invasion and tumor progression (EMT, myogenesis, angiogenesis, TGFβ signaling), stromal activation, serrated tumorigenesis and the CMS4 subtype","[3]; GSEA of Quant-seq, treated versus Veh",decrease
same,IFN and allograft rejection signatures,"[3]; GSEA of RNAseq, endogenous tumors",enrichment
same,stromal HA accumulation,"[3]; PEGPH20 0.0375 mg/kg twice a week, 3 weeks, IHC",eliminated
same,cancer incidence in the small intestine,"[3]; PEGPH20 0.0375 mg/kg, 3 weeks",lower
same,invasive carcinomas,"[3]; PEGPH20 0.0375 mg/kg, 3 weeks",reduced
same,sessile serrated lesions (SSL),"[3]; PEGPH20 0.0375 mg/kg, 3 weeks",fewer
same,collagen deposition and αSMA expression,"[3]; PEGPH20 0.0375 mg/kg, 3 weeks, Masson's trichrome, IHC",reduced
same,intestinal and colon tumors,"[3]; figure legend title, FIGS. 16A-16E",reduces
same,colon tumorigenesis,[3]; proximal colon tumors,reduced
same,average tumor size,[3]; [4],significant reduction
same,tumor load,[3]; [4],significant reduction
same,tumor number,[3]; [4],significant reduction
